Experimental data taken from publication doi:10.1101/2022.05.13.491839 (bioRxiv, 2022).

Tests used:
Assay in all cases: liposome flotation assay
[1] = molecular target: T1, VAP-A^His WT (human, UniProt Q9P0L0 8-230)
T1 sequence (looked up): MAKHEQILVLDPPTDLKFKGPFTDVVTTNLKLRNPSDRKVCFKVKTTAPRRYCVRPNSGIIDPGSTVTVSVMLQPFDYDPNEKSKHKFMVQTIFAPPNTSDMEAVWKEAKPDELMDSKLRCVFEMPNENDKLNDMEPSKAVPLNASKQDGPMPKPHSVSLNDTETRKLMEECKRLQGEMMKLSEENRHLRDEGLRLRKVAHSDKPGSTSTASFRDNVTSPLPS

[2] = molecular target: T2, VAP-A^His sL1 (human, UniProt Q9P0L0 8-132; Q9P0L0 165-230)
T2 chain: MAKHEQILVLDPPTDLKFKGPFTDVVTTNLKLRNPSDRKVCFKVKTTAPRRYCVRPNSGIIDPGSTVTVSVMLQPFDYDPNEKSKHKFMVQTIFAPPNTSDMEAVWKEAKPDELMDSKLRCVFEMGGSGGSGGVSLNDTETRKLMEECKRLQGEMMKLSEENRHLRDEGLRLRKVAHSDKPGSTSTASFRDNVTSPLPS

[3] = molecular target: T3, VAP-A^His sL2 (human, UniProt Q9P0L0 8-206)
T3 chain: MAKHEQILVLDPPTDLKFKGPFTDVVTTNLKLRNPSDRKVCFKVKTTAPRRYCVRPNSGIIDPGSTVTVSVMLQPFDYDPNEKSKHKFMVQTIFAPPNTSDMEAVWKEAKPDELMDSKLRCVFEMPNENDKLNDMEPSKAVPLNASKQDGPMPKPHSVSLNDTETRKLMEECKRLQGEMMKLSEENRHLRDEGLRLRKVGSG

[4] = molecular target: T4, VAP-A^His sL1/2 (human, UniProt Q9P0L0 8-132; Q9P0L0 165-206)
T4 chain: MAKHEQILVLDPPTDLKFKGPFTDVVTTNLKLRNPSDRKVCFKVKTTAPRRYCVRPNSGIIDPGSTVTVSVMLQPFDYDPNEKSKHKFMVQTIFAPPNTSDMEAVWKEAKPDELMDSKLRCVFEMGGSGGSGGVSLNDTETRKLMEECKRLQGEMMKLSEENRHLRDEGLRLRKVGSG

Measured: binding result

WCSGKGDMSDEDDENEFFDAPEIITMPENLGH [FFAT peptide]
binds: all assays above
